Laboratory results published in the supplement of paper PMC9112550, “Optimization of the antimicrobial peptide Bac7 by deep mutational scanning” (BMC Biology, 2022).

System: Escherichia coli TOP10
Assay: shrunken log2 fold change of peptide-encoding DNA abundance (4.5 h post-induction vs induction); higher = less antimicrobial activity (less host growth inhibition)
Conditions: time post-induction: 4.5 h; library: site-saturation at positions 5, 18, 19, 20
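Also: peptides expressed intracellularly from a pBAD plasmid library in pooled LB shake-flask culture, induced with 0.3% L-arabinose, DNA abundance read by NGS, three biological replicates, DESeq2 with apeglm shrinkage.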

| Sequence | shrunken log2 fold change |
| --- | --- |
| RRIRGRPPRLPRPRPRPMDAPRP | 0.322 |
| RRIRRRPPRLPRPRPRPQVAPRP | 0.157 |
| RRIRQRPPRLPRPRPRPEINPRP | -0.15 |
| RRIRGRPPRLPRPRPRPEFFPRP | 0.891 |
| RRIRVRPPRLPRPRPRPGVDPRP | 0.0334 |
| RRIRSRPPRLPRPRPRPKCCPRP | -0.0585 |
| RRIRNRPPRLPRPRPRPLDCPRP | -0.00858 |
| RRIRLRPPRLPRPRPRPPELPRP | 0.389 |
| RRIRMRPPRLPRPRPRPHKLPRP | -0.0702 |
| RRIRKRPPRLPRPRPRPQSLPRP | -0.017 |
| RRIRCRPPRLPRPRPRPMSKPRP | -0.5 |
| RRIRDRPPRLPRPRPRPMHTPRP | 0.0757 |
| RRIRWRPPRLPRPRPRPHQMPRP | -0.34 |
| RRIRYRPPRLPRPRPRPDNSPRP | -0.779 |
| RRIRNRPPRLPRPRPRPWMMPRP | -0.594 |
| RRIRNRPPRLPRPRPRPIATPRP | -0.0576 |
| RRIRDRPPRLPRPRPRPRYAPRP | 0.215 |
| RRIRLRPPRLPRPRPRPCRTPRP | -0.66 |
| RRIRFRPPRLPRPRPRPCELPRP | 0.00618 |
| RRIRRRPPRLPRPRPRPALWPRP | 1.02 |
| RRIRERPPRLPRPRPRPHNCPRP | -0.417 |
| RRIRCRPPRLPRPRPRPPGKPRP | 0.141 |
| RRIRARPPRLPRPRPRPLDNPRP | 0.151 |
| RRIRWRPPRLPRPRPRPYIRPRP | -0.359 |
| RRIRPRPPRLPRPRPRPGSLPRP | -0.0171 |

| Sequence | shrunken log2 fold change |
| --- | --- |
| RRIRSRPPRLPRPRPRPDNDPRP | -0.0528 |
| RRIRDRPPRLPRPRPRPFAFPRP | 0.249 |
| RRIRGRPPRLPRPRPRPAKAPRP | 0.233 |
| RRIRTRPPRLPRPRPRPMKEPRP | -0.164 |
| RRIRPRPPRLPRPRPRPIKEPRP | -0.00478 |
| RRIRSRPPRLPRPRPRPMMGPRP | 0.0137 |
| RRIRRRPPRLPRPRPRPHTPPRP | -0.039 |
| RRIRFRPPRLPRPRPRPDYEPRP | -0.407 |
| RRIRDRPPRLPRPRPRPIPLPRP | -0.0193 |
| RRIRMRPPRLPRPRPRPPKDPRP | 0.622 |
| RRIRYRPPRLPRPRPRPDGFPRP | -0.418 |
| RRIRERPPRLPRPRPRPGGQPRP | 0.171 |
| RRIRVRPPRLPRPRPRPISRPRP | 0.107 |
| RRIRFRPPRLPRPRPRPRKLPRP | 0.134 |
| RRIRDRPPRLPRPRPRPRNNPRP | -0.196 |
| RRIRMRPPRLPRPRPRPKQEPRP | 3.07 |
| RRIRLRPPRLPRPRPRPPNTPRP | 0.00316 |
| RRIRLRPPRLPRPRPRPGIPPRP | 0.215 |
| RRIRDRPPRLPRPRPRPRKMPRP | 0.154 |
| RRIRHRPPRLPRPRPRPQEMPRP | -0.0755 |
| RRIRQRPPRLPRPRPRPIENPRP | 0.219 |
| RRIRHRPPRLPRPRPRPQTNPRP | -0.633 |
| RRIRLRPPRLPRPRPRPQVHPRP | -0.184 |
| RRIRGRPPRLPRPRPRPMAWPRP | 0.743 |
| RRIRVRPPRLPRPRPRPRDKPRP | -0.179 |

| Sequence | shrunken log2 fold change |
| --- | --- |
| RRIRVRPPRLPRPRPRPQGRPRP | -0.0469 |
| RRIRMRPPRLPRPRPRPTHYPRP | 0.226 |
| RRIRYRPPRLPRPRPRPKDGPRP | -0.613 |
| RRIRSRPPRLPRPRPRPYLIPRP | -0.363 |
| RRIRCRPPRLPRPRPRPLEFPRP | -0.245 |
| RRIRKRPPRLPRPRPRPDEHPRP | 0.0292 |
| RRIRDRPPRLPRPRPRPKIGPRP | -0.0266 |
| RRIRFRPPRLPRPRPRPSNEPRP | -0.378 |
| RRIRARPPRLPRPRPRPQPCPRP | 0.276 |
| RRIRVRPPRLPRPRPRPATQPRP | -0.0949 |
| RRIRHRPPRLPRPRPRPTENPRP | -0.418 |
| RRIRWRPPRLPRPRPRPHEWPRP | 0.0987 |
| RRIRARPPRLPRPRPRPATHPRP | 0.186 |
| RRIRQRPPRLPRPRPRPKSKPRP | -0.123 |
| RRIRCRPPRLPRPRPRPQETPRP | 0.00739 |
| RRIRDRPPRLPRPRPRPTPKPRP | 0.346 |
| RRIRRRPPRLPRPRPRPNKRPRP | -0.0621 |
| RRIRMRPPRLPRPRPRPHYEPRP | -0.0284 |
| RRIRRRPPRLPRPRPRPVTMPRP | 0.0683 |
| RRIRQRPPRLPRPRPRPEKRPRP | 0.00771 |
| RRIRLRPPRLPRPRPRPYWMPRP | -0.257 |
| RRIRFRPPRLPRPRPRPFTRPRP | 0.0083 |
| RRIRGRPPRLPRPRPRPEDSPRP | 1.39 |
| RRIRARPPRLPRPRPRPNGRPRP | -0.11 |
| RRIRIRPPRLPRPRPRPQDHPRP | -0.466 |
